B1: Serine/threonine-protein kinase STK11 (Homo sapiens), Q15831 (parent)
chain: MEVVDPQQLGMFTEGELMSVGMDTFIHRIDSTEVIYQPRRKRAKLIGKYLMGDLLGEGSYGKVKEVLDSETLCRRAVKILKKKKLRRIPNGEANVKKEIQLLRRLRHKNVIQLVDVLYNEEKQKMYMVMEYCVCGMQEMLDSVPEKRFPVCQAHGYFCQLIDGLEYLHSQGIVHKDIKPGNLLLTTGGTLKISDLGVAEALHPFAADDTCRTSQGSPAFQPPEIANGLDTFSGFKVDIWSAGVTLYNITTGLYPFEGDNIYKLFENIGKGSYAIPGDCGPPLSDLLKGMLEYEPAKRFSIRQIRQHSWFRKKHPPAEAPVPIPPSPDTKDRWRSMTVVPYLEDLHGADEDEDLFDIEDDIIYTQDFTVPGQVPEEEASHNGQRRGLPKAVCMNGTEAAQLSTKSRAEGRAPNPARKACSASSKIRRLSACKQQ
partner: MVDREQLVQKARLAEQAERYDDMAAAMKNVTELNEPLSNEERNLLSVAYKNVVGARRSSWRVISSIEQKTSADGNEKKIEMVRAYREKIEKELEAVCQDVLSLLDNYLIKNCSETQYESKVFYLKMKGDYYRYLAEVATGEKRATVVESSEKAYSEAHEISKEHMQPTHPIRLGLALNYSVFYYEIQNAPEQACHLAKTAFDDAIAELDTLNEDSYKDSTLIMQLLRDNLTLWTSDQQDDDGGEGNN
B2: Serine/threonine-protein kinase STK11 (Homo sapiens), Q15831 (parent)
chain: B1 chain
B3: 14-3-3 protein zeta/delta (Homo sapiens), P63104 (parent)
chain: MDKNELVQKAKLAEQAERYDDMAACMKSVTEQGAELSNEERNLLSVAYKNVVGARRSSWRVVSSIEQKTEGAEKKQQMAREYREKIETELRDICNDVLSLLEKFLIPNASQAESKVFYLKMKGDYYRYLAEVAAGDDKKGIVDQSQQAYQEAFEISKKEMQPTHPIRLGLALNFSVFYYEILNSPEKACSLAKTAFDEAIAELDTLSEESYKDSTLIMQLLRDNLTLWTSDTQGDEAEAGEGGEN
partner: B1 chain
B4: Serine/threonine-protein kinase STK11 (Homo sapiens), Q15831 (parent)
chain: B1 chain
partner: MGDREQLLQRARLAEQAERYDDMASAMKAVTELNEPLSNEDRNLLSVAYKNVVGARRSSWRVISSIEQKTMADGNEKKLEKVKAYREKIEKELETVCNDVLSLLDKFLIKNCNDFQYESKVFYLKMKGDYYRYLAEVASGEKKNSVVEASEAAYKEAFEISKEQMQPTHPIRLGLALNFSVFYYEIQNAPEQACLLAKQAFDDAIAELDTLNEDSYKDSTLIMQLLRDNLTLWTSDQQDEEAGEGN

Variants of: B1
Conditions: with 1433g_human YWHAG

Row | effect of a mutation on the interaction | Variant
1 | disrupting interaction | MEVVDPQQLGMFTEGELMSVGMDTFIHRIDSTEVIYQPRRKRAKLIGKYLMGDLLGEGSYGKVKEVLDSETLCRRAVKILKKKKLRRIPNGEANVKKEIQLLRRLRHKNVIQLVDVLYNEEKQKMYMVMEYCVCGMQEMLDSVPEKRFPVCQAHGYFCQLIDGLEYLHSQGIVHKDIKPGNLLLTTGGTLKISDLGVAEALHPFAADDTCRTSQGSPAFQPPEIANGLDTFSGFKVDIWSAGVTLYNITTGLYPFEGDNIYKLFENIGKGSYAIPGDCGPPLSDLLKGMLEYEPAKRFSIRQIRQHSWFRKKHPPAEAPVPIPPSPDTKDRWRSMAVVPYLEDLHGADEDEDLFDIEDDIIYTQDFTVPGQVPEEEASHNGQRRGLPKAVCMNGTEAAQLSTKSRAEGRAPNPARKACSASSKIRRLSACKQQ [T336A]

Variants of: B2
Conditions: with 1433z_human YWHAZ

Row | effect of a mutation on the interaction | Variant
2 | disrupting interaction | MEVVDPQQLGMFTEGELMSVGMDTFIHRIDSTEVIYQPRRKRAKLIGKYLMGDLLGEGSYGKVKEVLDSETLCRRAVKILKKKKLRRIPNGEANVKKEIQLLRRLRHKNVIQLVDVLYNEEKQKMYMVMEYCVCGMQEMLDSVPEKRFPVCQAHGYFCQLIDGLEYLHSQGIVHKDIKPGNLLLTTGGTLKISDLGVAEALHPFAADDTCRTSQGSPAFQPPEIANGLDTFSGFKVDIWSAGVTLYNITTGLYPFEGDNIYKLFENIGKGSYAIPGDCGPPLSDLLKGMLEYEPAKRFSIRQIRQHSWFRKKHPPAEAPVPIPPSPDTKDRWRSMAVVPYLEDLHGADEDEDLFDIEDDIIYTQDFTVPGQVPEEEASHNGQRRGLPKAVCMNGTEAAQLSTKSRAEGRAPNPARKACSASSKIRRLSACKQQ [T336A]

Variants of: B3
Conditions: with stk11_human STK11, Q15831

Row | effect of a mutation on the interaction | Variant
3 | disrupting interaction | MDKNELVQKAKLAEQAERYDDMAACMKSVTEQGAELSNEERNLLSVAYENVVGARRSSWRVVSSIEQKTEGAEKKQQMAREYREKIETELRDICNDVLSLLEKFLIPNASQAESKVFYLKMKGDYYRYLAEVAAGDDKKGIVDQSQQAYQEAFEISKKEMQPTHPIRLGLALNFSVFYYEILNSPEKACSLAKTAFDEAIAELDTLSEESYKDSTLIMQLLRDNLTLWTSDTQGDEAEAGEGGEN [K49E]

Variants of: B4
Conditions: with 1433f_human YWHAH

Row | effect of a mutation on the interaction | Variant
4 | disrupting interaction | MEVVDPQQLGMFTEGELMSVGMDTFIHRIDSTEVIYQPRRKRAKLIGKYLMGDLLGEGSYGKVKEVLDSETLCRRAVKILKKKKLRRIPNGEANVKKEIQLLRRLRHKNVIQLVDVLYNEEKQKMYMVMEYCVCGMQEMLDSVPEKRFPVCQAHGYFCQLIDGLEYLHSQGIVHKDIKPGNLLLTTGGTLKISDLGVAEALHPFAADDTCRTSQGSPAFQPPEIANGLDTFSGFKVDIWSAGVTLYNITTGLYPFEGDNIYKLFENIGKGSYAIPGDCGPPLSDLLKGMLEYEPAKRFSIRQIRQHSWFRKKHPPAEAPVPIPPSPDTKDRWRSMAVVPYLEDLHGADEDEDLFDIEDDIIYTQDFTVPGQVPEEEASHNGQRRGLPKAVCMNGTEAAQLSTKSRAEGRAPNPARKACSASSKIRRLSACKQQ [T336A]

— IntAct's records for PubMed 22575644
